The values below come from US20190071480A1 (Biogen, published 2019).

Changes are numbered by the printed parent chain. Bridges are numbered along the chain shown (N, C = ends).

Test [1] deals with T1, extracellular domain of activin receptor type IIB (ActRIIBecd), biotinylated (Homo sapiens (Human), UniProt Q13705 27-117, amino-biotinylated with amine-PEG3-Biotin).
T1 construct: immobilised on a streptavidin-coated sensor chip; also called biotinylated ActRIIBecd; extracellular domain of ActRIIB
T1 sequence: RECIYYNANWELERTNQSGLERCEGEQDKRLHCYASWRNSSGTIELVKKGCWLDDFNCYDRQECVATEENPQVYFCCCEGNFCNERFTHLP
Briefly: BIAcore SPR as Example 5 (method not restated); SD ±2.31 nM. The method, then: (§1) Biosensor experiments. In one embodiment, experiments were performed on a BIAcore™ T100/T200 instrument (Pharmacia Biosensor AB) in the multichannel mode (serial flow path involving flow cells 1+2+3+4). Flow rate was 10 μl/min; temperature was 25° C.; and data were recorded at 2.5 points/s. All four segments of a sensor chip CMS were coated with streptavidin (Sigma) to a density of 2000 pg/mm² (2000 resonance units) by the aminocoupling procedure. ActRIIBecd (10 mg) and amine-PEG3-Biotin (10 mg, Pierce, Rockford, Ill.) were dissolved in 200 μl H₂O and 10 mg NaCNBH₃ was added to prepare biotinylated ActRIIBecd. The reaction mixture was heated at 70° C. for 24 h, after that a further 10 mg NaCNBH₃ was added and the reaction was heated at 70° C. for another 24 h. After cooling to room temperature, the mixture was desalted with the spin column (3,000 molecular weight cut off (MWCO)). […] Sensograms were recorded during flow of the analyte (the ActRIIBecd-associated polypeptides (i.e., domains) as previously described) first through flow cell 1 (control) then through flow cell 2 (biotinylated ActRIIBecd). […] The sensograms obtained at 1.11, 3.33, 10, 30, and 90 nM analyte were evaluated for equilibrium binding, association rate, and dissociation rate by using the programs supplied with the instrument (BIA evaluation 2.1; Software Handbook. 1995; Pharmacia Biosensor AB).
On the technique in general: In SPR one partner is held on a chip, and binding of the other changes the refractive index at the surface.

For test [2], the target named is T1, extracellular domain of activin …. Briefly: Mean KD column of Table 5; method not restated (BIAcore as Example 5); species also listed in Table 4. The method, then: Biosensor experiments. In one embodiment, experiments were performed on a BIAcore™ T100/T200 instrument (Pharmacia Biosensor AB) in the multichannel mode (serial flow path involving flow cells 1+2+3+4). Flow rate was 10 μl/min; temperature was 25° C.; and data were recorded at 2.5 points/s. All four segments of a sensor chip CMS were coated with streptavidin (Sigma) to a density of 2000 pg/mm² (2000 resonance units) by the aminocoupling procedure. ActRIIBecd (10 mg) and amine-PEG3-Biotin (10 mg, Pierce, Rockford, Ill.) were dissolved in 200 μl H₂O and 10 mg NaCNBH₃ was added to prepare biotinylated ActRIIBecd. The reaction mixture was heated at 70° C. for 24 h, after that a further 10 mg NaCNBH₃ was added and the reaction was heated at 70° C. for another 24 h. After cooling to room temperature, the mixture was desalted with the spin column (3,000 molecular weight cut off (MWCO)). Biotinylated ActRIIBecd was collected, freeze-dried and used for streptavidin (SA) chip preparation. Amino-biotinylated ActRIIBecd was then immobilized independently on flow cells 2-4 for 10 minutes at a flow rate of 5 μL/min and a concentration of 20 μM in 10 mM sodium acetate, pH 4.0, at a density of 50-250 resonance units (RU). The stored polypeptides were dissolved in glycine buffer (2.5 g of glycine, 0.5 g of sucrose, 370 mg of L-glutamate, 10 mg of sodium chloride, and 10 mg of Tween 80 in 100 mL water, pH 4.5) to prepare 10 mg/mL solution and then diluted with previous glycine buffer to prepare analytes with various concentration. Sensograms were recorded during flow of the analyte (the ActRIIBecd-associated polypeptides (i.e., domains) as previously described) first through flow cell 1 (control) then through flow cell 2 (biotinylated ActRIIBecd). The sensogram obtained for flow cell 1 was subtracted from the sensogram obtained for flow cell 2. The sensograms obtained at 1.11, 3.33, 10, 30, and 90 nM analyte were evaluated for equilibrium binding, association rate, and dissociation rate by using the programs supplied with the instrument (BIA evaluation 2.1; Software Handbook. 1995; Pharmacia Biosensor AB).

Test [3] has the same target. Briefly: BIAcore SPR as Example 5 (method not restated); SD ±2.88 nM. The method, then: as §1
Test [4] has the same target. Briefly: BIAcore SPR as Example 5 (method not restated); SD ±1.99 nM. The method, then: as §1
Test [5] shares this target. Briefly: Mean KD column of Table 5; differs from Table 4 (22.31). The method, then: as §1
For test [6] the target is unchanged. Briefly: BIAcore SPR as Example 5 (method not restated); SD ±3.30 nM. The method, then: as §1
The target is the same in test [7]. Put plainly: BIAcore SPR as Example 5 (method not restated); SD ±1.27 nM. The method, then:
as §1

The target is the same in test [8]. Briefly: BIAcore SPR as Example 5 (method not restated); SD ±1.62 nM.
For test [9] the target is unchanged. Put plainly: BIAcore SPR as Example 5 (method not restated); SD ±2.62 nM. The method, then:
as §1

Test [10] shares this target. Put plainly: BIAcore SPR as Example 5 (method not restated); SD ±1.79 nM. The method, then:
as §1

Test [11] has the same target. Put plainly: BIAcore SPR as Example 5 (method not restated); SD ±2.21 nM. The method, then:
as §1

Test [12] has the same target. Briefly: BIAcore SPR as Example 5 (method not restated); SD ±1.56 nM. The method, then:
as §1

Test [13] shares this target. Put plainly: BIAcore SPR as Example 5 (method not restated); SD ±3.09 nM. The method, then:
as §1

The target is the same in test [14]. Briefly: BIAcore SPR as Example 5 (method not restated); SD ±1.09 nM. The method, then: as §1
Test [15] shares this target. Briefly: BIAcore SPR as Example 5 (method not restated); SD ±3.22 nM. The method, then: as §1
Test [16] has the same target. Briefly: BIAcore SPR as Example 5 (method not restated); SD ±1.70 nM. The method, then:
as §1

Test [17] shares this target. Briefly: BIAcore SPR, biotinylated ActRIIBecd on chip; SD ±23.17 nM. The method, then:
as §1

Test [18] shares this target. Put plainly: BIAcore SPR, biotinylated ActRIIBecd on chip; SD ±24.42 nM. The method, then: as §1
The target is the same in test [19]. Put plainly: BIAcore SPR as Example 5 (method not restated); SD ±2.09 nM. The method, then:
as §1

B1: SEQ ID NO: 230, cysteine pairs C23-C27^a (designed binder)
chain: VDFKDVGWNDHAVAPPGYHAFYCHGECPFPLADHLNSDNHAIVQTKVNSVGQAKRKGYKRLKSSCKRHPLY
modifications: disulfides C23-C27 (intra)
The term Kd denotes the constant that tells how readily two partners part at equilibrium. Low readings indicate a tighter complex, high ones a looser complex. B1: the Kd in test [1] and in test [2] was 17.9 nM in each case.

B2: SEQ ID NO: 224, cysteine pairs C15-C44^a (designed binder)
chain: GQAKRKGYKRLKSSCKRHPLYVDFKDVGWNDHAVAPPGYHAFYCHGECPFPLADHLNSDNHAIVQTKVNSV
modifications: disulfides C15-C44 (intra)
In the case of B2, the Kd in test [3] and in test [2] was 48.9 nM in each case.

B3: SEQ ID NO: 224, cysteine pairs C44-C48^a (designed binder)
chain: B2 chain
modifications: disulfides C44-C48 (intra)
In the case of B3, the Kd in test [4] stood at 22.3 nM; in test [5] it was 21.5 nM.

B4: SEQ ID NO: 236, cysteine pairs C41-C59^a (designed binder)
chain: NSKDPKACCVPTELSAPSPLYLDENEKPVLKNYQDMVVHGCGCRGQAKRKGYKRLKSSCKRHPLY
modifications: disulfide 41-59
As for B4, the Kd in [6] and in test [2] was 49.5 nM in each case.

B5: SEQ ID NO: 236, cysteine pairs C59-C59^b, C8-C43^a, C9-C41^a (designed binder)
chain: B4 chain
modifications: disulfide 9-41, 8-43; also: homodimer via intermolecular C59-C59 disulfide
notes: homodimer by intermolecular disulfide
On to B5, for which the Kd in test [7] and in test [2] was 17.1 nM each time.

B6: SEQ ID NO: 218, cysteine pairs C15-C15^b, C29-C62^a, C30-C64^a (designed binder)
chain: AQAKHKQRKRLKSSCKRHPLYNSKIPKACCVPTELSAISMLYLDENEKVVLKNYQDMVVEGCGCR
modifications: disulfide 29-62, 30-64; also: homodimer via intermolecular C15-C15 disulfide
notes: as for B5
For B6, the Kd in [8] and in test [2] was 16.2 nM throughout.

B7: SEQ ID NO: 218, cysteine pairs C15-C30^a (designed binder)
chain: B6 chain
modifications: disulfide 15-30
As for B7, the Kd in [9] and in test [2] was 40.9 nM throughout.

B8: SEQ ID NO: 218, cysteine pairs C15-C15^b, C29-C64^a, C30-C62^a (designed binder)
chain: B6 chain
modifications: disulfide 29-64, 30-62; also: homodimer via intermolecular C15-C15 disulfide
notes: as for B5
For the molecule B8, the Kd in test [10] and in test [2] was 18.4 nM each time.

B9: SEQ ID NO: 212, cysteine pairs C59-C59^b, C8-C41^a, C9-C43^a (designed binder)
chain: NSKIPKACCVPTELSAISMLYLDENEKVVLKNYQDMVVEGCGCRAQAKHKQRKRLKSSCKRHPLY
modifications: disulfide 8-41, 9-43; also: homodimer via intermolecular C59-C59 disulfide
notes: as for B5
For B9, the Kd in test [11] and in test [2] was 18.1 nM each time.

B10: SEQ ID NO: 212, cysteine pairs C59-C59^b, C8-C43^a, C9-C41^a (designed binder)
chain: B9 chain
modifications: disulfide 9-41, 8-43; also: homodimer via intermolecular C59-C59 disulfide
notes: as for B5
As for B10, the Kd in [12] and in test [2] was 19.3 nM throughout.

B11: SEQ ID NO: 212, cysteine pairs C41-C59^a (designed binder)
chain: B9 chain
modifications: disulfide 41-59
For the molecule B11, the Kd in [13] and in test [2] was 44.3 nM in each case.

B12: SEQ ID NO: 206, cysteine pairs C8-C71^a (designed binder)
chain: NSKIPKACCVPTELSAISMLYLDENEKVVLKNYQDMVVEGCGCRVDFSDVGWNDWIVAPPGYHAFYCHGECPFPLADHLNSTNHAIVQTLVNSV
modifications: disulfides C8-C71 (intra)
B12: the Kd in test [14] and in test [2] was 49.7 nM each time.

B13: SEQ ID NO: 248, cysteine pairs C41-C43^a (designed binder)
chain: B12 chain with I4D, I17P, M19P, V28P, E39H, S48K, W55H, I56A, T82D, L90K
modifications: disulfides C41-C43 (intra)
In the case of B13, the Kd in test [15] and in test [2] was 47.8 nM each time.

B14: SEQ ID NO: 206, cysteine pairs C67-C71^a, C8-C43^a, C9-C41^a (designed binder)
chain: B12 chain
modifications: disulfides C67-C71 (intra), C8-C43 (intra), C9-C41 (intra)
On to B14, for which the Kd in test [16] and in test [2] was 17.7 nM throughout.
Turning to AQAKHKGRKRLKSSCKRHPLY [Clone No. 11 domain (ActRIIBecd-associated polypeptide)], the affinity in test [17], expressed as Kd, was 63.7 nM.
AQAKHKQYKRLKSSCKRHPLY [Clone No. 12 domain (ActRIIBecd-associated polypeptide)] showed a Kd in test [18] of 58.4 nM.

B15: SEQ ID NO: 242, cysteine pairs C15-C15^b, C29-C62^a, C30-C64^a (designed binder)
chain: GQAKRKGYKRLKSSCKRHPLYNSKDPKACCVPTELSAPSPLYLDENEKPVLKNYQDMVVHGCGCR
modifications: disulfide 29-62, 30-64; also: homodimer via intermolecular C15-C15 disulfide
notes: as for B5
With B15, the Kd in test [19] and in test [2] was 17.8 nM in each case.
